Tests used:
[1] = test system: plasma anti FXa activity in mice treated with pentasaccharide; experiment: Murine model: mutated antithrombins as antidotes of fondaparinux, plasma anti FXa activity; type: in vivo, mouse; details: injection of mutated antithrombin after fondaparinux
Procedure: The efficiency of the mutated antithrombins AT-R393H(SEQ ID NO: 4), AT-Pro394 (SEQ ID NO: 6), AT-ΔR393-S394 (SEQ ID NO: 18), AT-ΔR393 (SEQ ID NO: 8), AT-ΔS394 (SEQ ID NO: 10), AT-N135Q-R393H(SEQ ID NO: 14), AT-N135Q-Pro394 (SEQ ID NO: 16), AT-N135Q-ΔR393-S394 (SEQ ID NO: 24), AT-N135Q-ΔR393 (SEQ ID NO: 20), AT-N135Q-A5394 (SEQ ID NO: 22) as antidotes is evaluated in a murine model.
The different drugs to be tested (fondaparinux, low molecular weight heparin, full length heparin and the mutated antithrombins) are administrated by intra-venous injection in the caudal vein to avoid the variability encountered when administration is performed subcutaneously. However, Heparin derivatives (fondaparinux, low molecular weight heparin and full length heparin) could also be administrated subcutaneously.
The blood is collected by punction in cave vein into tubes containing 0.105 mol/L trisodium citrate (1:10). Platelet-poor plasma is obtained by centrifugation at 2300 g for 10 minutes at 12° C. and stored at −80° C. until use.
The following elements are determined: • the doses of fondaparinux inducing an overdose in mice, • the mutated antithrombins time course, and in particular the time required to observe a maximal biological effect, • the minimal doses of mutated antithrombins necessary to neutralize fondaparinux.
For each of these experiments, 4 groups of 5 mice each are used: • In the first group mice receive fondaparinux vehicle and then antidote (mutated antithrombin) vehicle. • In the second group, mice receive fondaparinux and then antidote vehicle • In the third group, mice receive fondaparinux vehicle and then antidote • In the last group, mice receive fondaparinux and then antidote
Anti FXa activity measurements is performed as previously described using a Stachrom Heparin® kit on a STA (Stago, France) or a Rotachrom Heparin® kit with procedure adapted for measurement in microplate reader (Dynatech MR 5000). A calibration curve with pentasaccharide is performed, allowing the expression of the results in nmol/ml (or in mg/L) of plasma.
Thus, the antidote (mutated antithrombins) is administered intravenously, 5 min after the intra-venous injection of the fondaparinux, and 5, 15 or 30 min after the subcutaneous injection of the fondaparinux.
The mutated antithrombin time course is studied by measuring the plasma anti-Xa activity 5 min, 10 min, 20 min and 40 min after the antidote administration.
Once the time of action determined, a dose response curve is performed in vivo to determine the dose of antidote necessary to obtain a decrease in Fondaparinux plasma concentration within the therapeutic range around 1.2 nmol/ml (or 2 mg/L), or around 0.7 nmol/ml (or 1.2 mg/L).

[2] = test system: pentasaccharide bound murine antithrombin (plasma anti-Xa activity); experiment: Anti factor Xa assay in mouse plasma supplemented with Fondaparinux; type: biochemical
Procedure: During the animal experimentation (see detailed protocol below), human mutated antithrombins compete with murine antithrombin for their binding to the pentasaccharide. Thus, preliminary in vitro assays are performed to determine the human mutated antithrombin concentration necessary to compete with the murine antithrombin present in mouse plasma supplemented with Fondaparinux.
These experiments are performed as described in section II-b, using mouse plasma instead of human plasma.

[3] = molecular target: T1, factor Xa (Homo sapiens, UniProt P00742); experiment: Kinetic assay of factor Xa inhibition by antithrombins in a purified system (chromogenic substrate, continuous or discontinuous); type: biochemical; details: with or without pentasaccharide; compared with plasma / wild type antithrombin
T1 construct: purchased Kordia
T1 sequence (P00742 235-488 limits assumed): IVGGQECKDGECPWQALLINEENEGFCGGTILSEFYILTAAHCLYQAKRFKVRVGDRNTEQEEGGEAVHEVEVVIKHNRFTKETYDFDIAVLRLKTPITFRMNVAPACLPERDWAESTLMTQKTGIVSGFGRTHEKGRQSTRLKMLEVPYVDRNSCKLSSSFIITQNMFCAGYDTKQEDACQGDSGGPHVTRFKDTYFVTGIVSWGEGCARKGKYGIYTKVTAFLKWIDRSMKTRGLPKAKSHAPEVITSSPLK
T1 sequence (P00742 41-179 partner limits assumed): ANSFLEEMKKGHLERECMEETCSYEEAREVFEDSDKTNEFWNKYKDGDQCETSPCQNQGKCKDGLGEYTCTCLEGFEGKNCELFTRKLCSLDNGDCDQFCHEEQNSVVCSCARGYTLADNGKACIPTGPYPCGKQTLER
Procedure: Briefly, factor Xa is incubated with an excess of tested antithrombins (corresponding to plasma antithrombin, or wild type antithrombin or mutated antithrombins and varying in each assay realized) in the presence or absence of pentasaccharide (Fondaparinux sodique, Arixtra®, GlaxoSmithKline) and the factor Xa residual activity is measured as a function of time. The pentasaccharide is added in excess in the reaction media so that every tested antithrombin is bound to the pentasaccharide. In the absence of pentasaccharide, polybrene is added in order to neutralize any sulfated glycosaminoglycan that may be present in the reaction media. The residual factor Xa activity is measured as the increase in absorbance at 405 nm resulting from cleavage of the chromogenic substrate (S2765 or S2222, Chromogenix) using a microplate reader (Dynatech MR 5000). The analysis of the data is performed using the GraphPad Prism version 3 software. Absorbance recording is continuous or discontinuous according to the expected inhibition rate constant (kon).
The inhibition rate constant (kon) is the second order rate constant given in M^−1·s^−1 which define the velocity of stable complex formation between protease and antithrombin (higher is the kon value, faster will the complex be established).
When the expected kon is lower than 10^4 M^−1·s^−1 the discontinuous method is used. Factor Xa (0.2 to 1 μM, or 0.1 to 1 μM) is incubated with tested antithrombins (0.2 to 10 μM, or 1 to 10 μM) in the presence of pentasaccharide (10 to 100 μM) or polybrene (100 μg/ml) in a final volume of 10 μl for 10 seconds to 5 hours, or 10 seconds to 24 hours. At the end of this incubation period, 190 μl of kinetic buffer containing 200 μM substrate is added and absorbance at 405 nm is recorded.
The kinetic rate constant (k) is estimated by fitting the substrate hydrolysis initial rate curve to equation (1) using non-linear regression with v0 and v∞ being the substrate hydrolysis rate at time to or too respectively. […] (1)
The inhibition rate constant (kon) is calculated from the rate constant (k) using equation (2) where AT is the tested antithrombin concentration. k=AT·kon (2)
When the expected kon is higher than 10^4 M^−1·s^−1′ the continuous method is used. The tested antithrombin (0.01 to 1 μM, or 0.1 to 1 μM) is incubated with the substrate (200 μM) in the presence of pentasaccharide or polybrene in a final volume of 100 μL, or 190 μl, and the reaction is started by addition of 100 μL, or 10 μL, of factor Xa (2 nM or 10 nM). The rate constant (k) is obtained by fitting the substrate hydrolysis curve to equation (3) or (3′) using non-linear regression analysis where A0 is the absorbance at t0, and vi and vs are respectively the initial and final rates of substrate hydrolysis in the absence of tested antithrombin. A405=A0+vi·(1−exp(−k·t))/k. (3) Equation (3′) is also used, particularly in presence of plasma. A405=A0+vs*t+(vi−vs)*(1−exp(−k·t))/k. (3′)
The inhibition rate constant (kon) is calculated from the kinetic constant (k) using equation (4) that takes into account the competitive effect of the substrate, with S being the initial substrate concentration, Km, the Michaelis constant for factor Xa-substrate interaction, AT the tested antithrombin concentration. k=(kon/(1+S/Km))·[AT] (4)
Mutated antithrombins and wild type AT inhibitory activity are measured in the same conditions and compared with plasma AT inhibitory activity.

Row | factor Xa inhibitory activity [3] | Molecule | plasma anti FXa activity in mice treated with pentasaccharide [1] | effect on anti-Xa activity of pentasaccharide contained in mouse plasma [2]
1 | negligible | AT-Pro394: human antithrombin with insertion of a Proline between positions 393 and 394 (protein, listed as Homo sapiens) HGSPVDICTAKPRDIPMNPMCIYRSPEKKATEDEGSEQKIPEATNRRVWELSKANSRFATTFYQHLADSKNDNDNIFLSPLSISTAFAMTKLGACNDTLQQLMEVFKFDTISEKTSDQIHFFFAKLNCRLYRKANKSSKLVSANRLFGDKSLTFNETYQDISELVYGAKLQPLDFKENAEQSRAAINKWVSNKTEGRITDVIPSEAINELTVLVLVNTIYFKGLWKSKFSPENTRKELFYKADGESCSASMMYQEGKFRYRRVAEGTQVLELPFKGDDITMVLILPKPEKSLAKVEKELTPEVLQEWLDELEEMMLVVHMPRFRIEDGFSLKEQLQDMGLVDLFSPEKSKLPGIVAEGRDDLYVSDAFHKAFLEVNEEGSEAAASTAVVIAGRPSLNPNRVTFKANRPFLVFIREVPLNTIIFMGRVANPCVK | significant decrease | significant decrease
2 | negligible | AT-ΔR393: human antithrombin with deletion of the amino acid at position 393 (protein, listed as Homo sapiens) HGSPVDICTAKPRDIPMNPMCIYRSPEKKATEDEGSEQKIPEATNRRVWELSKANSRFATTFYQHLADSKNDNDNIFLSPLSISTAFAMTKLGACNDTLQQLMEVFKFDTISEKTSDQIHFFFAKLNCRLYRKANKSSKLVSANRLFGDKSLTFNETYQDISELVYGAKLQPLDFKENAEQSRAAINKWVSNKTEGRITDVIPSEAINELTVLVLVNTIYFKGLWKSKFSPENTRKELFYKADGESCSASMMYQEGKFRYRRVAEGTQVLELPFKGDDITMVLILPKPEKSLAKVEKELTPEVLQEWLDELEEMMLVVHMPRFRIEDGFSLKEQLQDMGLVDLFSPEKSKLPGIVAEGRDDLYVSDAFHKAFLEVNEEGSEAAASTAVVIAGSLNPNRVTFKANRPFLVFIREVPLNTIIFMGRVANPCVK | significant decrease | significant decrease
3 | negligible | AT-ΔS394: human antithrombin with deletion of the amino acid at position 394 (protein, listed as Homo sapiens) HGSPVDICTAKPRDIPMNPMCIYRSPEKKATEDEGSEQKIPEATNRRVWELSKANSRFATTFYQHLADSKNDNDNIFLSPLSISTAFAMTKLGACNDTLQQLMEVFKFDTISEKTSDQIHFFFAKLNCRLYRKANKSSKLVSANRLFGDKSLTFNETYQDISELVYGAKLQPLDFKENAEQSRAAINKWVSNKTEGRITDVIPSEAINELTVLVLVNTIYFKGLWKSKFSPENTRKELFYKADGESCSASMMYQEGKFRYRRVAEGTQVLELPFKGDDITMVLILPKPEKSLAKVEKELTPEVLQEWLDELEEMMLVVHMPRFRIEDGFSLKEQLQDMGLVDLFSPEKSKLPGIVAEGRDDLYVSDAFHKAFLEVNEEGSEAAASTAVVIAGRLNPNRVTFKANRPFLVFIREVPLNTIIFMGRVANPCVK | significant decrease | significant decrease
4 | negligible | AT-ΔR393-S394: human antithrombin with deletion of the amino acids at positions 393 and 394 (protein, listed as Homo sapiens) HGSPVDICTAKPRDIPMNPMCIYRSPEKKATEDEGSEQKIPEATNRRVWELSKANSRFATTFYQHLADSKNDNDNIFLSPLSISTAFAMTKLGACNDTLQQLMEVFKFDTISEKTSDQIHFFFAKLNCRLYRKANKSSKLVSANRLFGDKSLTFNETYQDISELVYGAKLQPLDFKENAEQSRAAINKWVSNKTEGRITDVIPSEAINELTVLVLVNTIYFKGLWKSKFSPENTRKELFYKADGESCSASMMYQEGKFRYRRVAEGTQVLELPFKGDDITMVLILPKPEKSLAKVEKELTPEVLQEWLDELEEMMLVVHMPRFRIEDGFSLKEQLQDMGLVDLFSPEKSKLPGIVAEGRDDLYVSDAFHKAFLEVNEEGSEAAASTAVVIAGLNPNRVTFKANRPFLVFIREVPLNTIIFMGRVANPCVK | significant decrease | significant decrease
